The record followed here is PMC4175327.

The target in the data set is human beta2-microglobulin (hβ2m), monomer (human) (UniProt P61769). Briefly: SPR. To be noted: 2'-fluoro C and U; 50 mM MES, 120 mM NaCl, pH 6.2; fluorescence and NMR at 25 °C (NMR plus 0.02% azide, 0.1 mM EDTA, 10% D2O); SPR temperature not stated.
Chain of human beta2-microglobulin (hβ2m), monomer (human) (P61769 21-119): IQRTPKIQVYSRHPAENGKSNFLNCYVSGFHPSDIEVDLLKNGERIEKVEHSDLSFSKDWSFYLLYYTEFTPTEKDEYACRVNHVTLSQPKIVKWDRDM

As a reminder, the Kd is the constant that tells how readily two partners part at equilibrium. Consider “GGGAAUGGAUCCACAUCUACGAAUUCUGAGCUACUCCCUUUUGGGCCCGGCUAUGAUUCACUGCAGACUUGACGAAGCUU [2'F B6 (full-length aptamer, 110 nt)]”, for which the Kd was 500 nM.
